{
  "source": "patent US20230181640A1",
  "about": "(SHANGHAI ABELZETA, published 2023)",
  "binders": {"B1": {"name": "hBCMA-ECD-Fc (fusion protein of human BCMA extracellular domain Met1-Ala54 and human IgG1 Fc fragment Pro100-Lys330) (Fc fusion, UniProt Q02223 1-54, looked up)", "chain": "MLQMAGQCSQNEYFDSLLHACIPCQLRCSSNTPPLTCQRYCNASVTNSVKGTNA", "notes": "range 1-54; also the immunogen; also called soluble extracellular domain of human BCMA; not shown: human IgG1 Fc fragment, Pro100-Lys330"}, "B2": {"name": "BCMA of K562-BCMA+ medium supernatant (soluble BCMA) (receptor, UniProt Q02223 1-54, looked up)", "chain": "B1 chain"}, "B3": {"name": "chimeric antibody 107A9A4D2VH/VL-1 (antibody, human IgG1, kappa, V domains shown)", "VH": "EVQLQQSGPVLVKPGASVKMSCKASGYTFTDLYMNWLKQSHGKRLEWIGVINPYNGGTSYNQKFKGKATLTVDKSSSTAYMDLNSLTSEDSAVYYCARGDSIYVMDYWGQGTSFTVSS", "VL": "ENVLTQSPAIMSASPGEKVTMTCSASSSVSYMHWYQQKSSTSPKLWIYDTSKLSSGVPGRFSGSGSGKSYSLTISSMEAEDVATYYCFQGSGYPLFTFGSGTKLEIKR", "notes": "IgG1,κ chimeric antibody, HEK 293T supernatant; also called 107A9A4D2VH paired with 107A9A4D2VL-1"}},
  "key": {"[1]": {"molecular_target": "T1, hybridoma antibody 6G10-1D7 (mAb001)", "T1 construct": "tested as supernatant and purified; also called CP01", "T1 sequence (VH, as listed by the source, chain 1 of 2)": "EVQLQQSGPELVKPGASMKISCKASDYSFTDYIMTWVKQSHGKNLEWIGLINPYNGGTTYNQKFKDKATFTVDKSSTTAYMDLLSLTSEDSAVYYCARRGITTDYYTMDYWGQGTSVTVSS", "T1 sequence (VL, as listed by the source, chain 2 of 2)": "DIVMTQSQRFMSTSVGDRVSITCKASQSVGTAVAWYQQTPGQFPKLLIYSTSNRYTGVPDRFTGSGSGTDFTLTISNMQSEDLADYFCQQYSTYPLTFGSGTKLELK", "experiment": "flow cytometry competition: hBCMA-ECD-Fc against K562-BCMA+ cells for mAb001 at 1 µg/ml"}, "[2]": {"molecular_target": "T1, hybridoma antibody 6G10-1D7 (mAb001)", "experiment": "flow cytometry competition: BCMA of K562-BCMA+ supernatant against K562-BCMA+ cells for mAb001 at 1 µg/ml"}, "[3]": {"molecular_target": "B1", "experiment": "ELISA, chimeric antibody supernatant"}, "[4]": {"molecular_target": "T2, human BCMA on cells (L-BCMA+, K562-BCMA+, A549-BCMA-1D6) (human, UniProt Q02223 1-184)", "T2 construct": "whole, on cells; the cell line of each assay is named under assay; also called L-BCMA-1E6-A4; K562-BCMA-B22D8", "T2 sequence (looked up)": "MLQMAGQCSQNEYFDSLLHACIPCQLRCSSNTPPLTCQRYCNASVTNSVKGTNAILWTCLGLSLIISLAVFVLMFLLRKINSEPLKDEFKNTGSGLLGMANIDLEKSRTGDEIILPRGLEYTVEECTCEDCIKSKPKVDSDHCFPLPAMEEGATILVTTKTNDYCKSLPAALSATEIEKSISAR", "experiment": "FACS, chimeric antibody supernatant, L-BCMA+ cells"}},
  "data": [
    {"binder": "B1", "values": [
      {"measurement": "IC50", "setting": "[1]", "value": 0.731, "unit": "µg/mL"},
      {"measurement": "molar ratio at IC50", "setting": "[1]", "value": "1.7 molar ratio (:1)"}
    ]},
    {"binder": "B2", "values": [
      {"measurement": "IC50", "setting": "[2]", "value": 0.466, "unit": "µg/mL"},
      {"measurement": "molar ratio at IC50", "setting": "[2]", "value": "10.4 molar ratio (:1)"}
    ]},
    {"binder": "B3", "values": [
      {"measurement": "ELISA (OD450 nm)", "setting": "[3]", "value": 0.13, "unit": "OD450"},
      {"measurement": "FACS (MFI)", "setting": "[4]", "value": 42.5, "unit": "MFI"}
    ]}
  ]
}
